Each block holds one molecule with its values, some of them ahead of it.
B1: arrestin-1 E218C (C63A/C143A), mBBr-labeled (natural protein, bovine)
chain: KANKPAPNHVIFKKISRDKSVTIYLGKRDYIDHVERVEPVDGVVLVDPELVKGKRVYVSLTAAFRYGQEDIDVMGLSFRRDLYFSQVQVFPPVGASGATTRLQESLIKKLGANTYPFLLTFPDYLPCSVMLQPAPQDVGKSAGVDFEIKAFATHSTDVEEDKIPKKSSVRLLIRKVQHAPRDMGPQPRAEASWQFFMSDKPLRLAVSLSKEIYYHGCPIPVTVAVTNSTEKTVKKIKVLVEQVTNVVLYSSDYYIKTVAAEEAQEKVPPNSSLTKTLTLVPLLANNRERRGIALDGKIKHEDTNLASSTIIKEGIDKTVMGILVSYQIKVKLTVSGLLGELTSSEVATEVPFRLMHPQPEDPDTAKESFQDENFVFEEFARQNLKDAGEYKEEKTDQEAAMDE
modifications: monobromobimane (mBBr) on the introduced cysteine 218
notes: arrestin-1, bovine; also called E218C-mBBr; source: Pichia pastoris, purified (nickel-agarose)
B2: enolase-1 (bovine, unlabeled) (enzyme, UniProt Q9XSJ4 1-434, looked up)
chain: MSILKVHAREIFDSRGNPTVEVDLFTAKGLFRAAVPSGASTGIYEALELRDNDKTRYMGKGVSKAVEHINKTIAPALVSKKLNVVEQEKIDKLMIEMDGTENKSKFGANAILGVSLAVCKAGAVEKGVPLYRHIADLAGNAEVILPVPAFNVINGGSHAGNKLAMQEFMILPVGAENFREAMRIGAEVYHNLKNVIKEKYGKDATNVGDEGGFAPNILENKEALELLKNAIGKAGYSDKVVIGMDVAASEFYRSGKYDLDFKSPDDPSRYITPDELANLYKSFIRDYPVVSIEDPFDQDDWEAWQKFTASAGIQVVGDDLTVTNPKRIAKAVSEKSCNCLLLKVNQIGSVTESLQACKLAQSNGWGVMVSHRSGETEDTFIADLVVGLCTGQIKTVAPCRSERLAKYNQILRIEEELGSKAKFAGRSFRNPLAK
notes: enolase-1 (alpha-enolase), bovine; also called Eno1; source: prepared as arrestin-1 (Pichia pastoris, nickel-agarose)

What was measured:
[1] = biological target: arrestin-1 D362K (bovine) (UniProt P08168); assay: co-IP; 5 μM arrestin-1 (or mutant) with 5 μM enolase-1–Alexa 546 in LAP200N, 2 h at 4 °C; captured by C10C10 anti-arrestin-1 mAb on Protein G magnetic beads for 16 h, 10 washes, eluted at pH 2.5; fluorescence of captured enolase-1 read
[2] = biological target: arrestin-1 E361K (bovine) (UniProt P08168); assay: as above
arrestin-1 R29E (bovine) = arrestin-1 R29E (bovine) (UniProt P08168); assay: as above
[3] = biological target: B2; assay: fluorescence quench protection (KI quenching of mBBr); E218C-mBBr arrestin-1 with enolase-1 in the presence of 5 μM pRho* (sonicated disc membranes, light for 1 min); conditions: both partners purified
[4] = biological target: T1, arrestin-1 H10C (C63A/C143A), mBBr-labeled (bovine, UniProt P08168 2-404, C63A | C143A | H10C, monobromobimane (mBBr) on the introduced cysteine 10); assay: fluorescence quench protection (KI quenching of mBBr); titration of the enolase-1 concentration against H10C-mBBr arrestin-1 to set the conditions; conditions: both partners purified
T1 construct: arrestin-1, bovine; source: Pichia pastoris, purified (nickel-agarose)

[5] = biological target: T2, arrestin-1 K28C (C63A/C143A), mBBr-labeled (bovine, UniProt P08168 2-404, C63A | C143A | K28C, monobromobimane (mBBr) on the introduced cysteine 28); assay: fluorescence quench protection (KI quenching of mBBr); both in solution; 0.25 μM mBBr-labeled arrestin-1, 100 mM potassium iodide, with or without 5 μM enolase-1 (20-fold molar excess); emission at 470 nm; Pf = (F(A+E+K)−F(A+K))/(F(A)−F(A+K)); conditions: both partners purified
T2 construct: arrestin-1, bovine; source: Pichia pastoris, purified (nickel-agarose)

[6] = biological target: T3, arrestin-1 R37C (C63A/C143A), mBBr-labeled (bovine, UniProt P08168 2-404, C63A | C143A | R37C, monobromobimane (mBBr) on the introduced cysteine 37); assay: as above; conditions: both partners purified
T3 construct: arrestin-1, bovine; source: Pichia pastoris, purified (nickel-agarose)

[7] = biological target: T4, arrestin-1 E50C (C63A/C143A), mBBr-labeled (bovine, UniProt P08168 2-404, C63A | C143A | E50C, monobromobimane (mBBr) on the introduced cysteine 50); assay: as above; conditions: both partners purified
T4 construct: arrestin-1, bovine; source: Pichia pastoris, purified (nickel-agarose)

[8] = biological target: T5, arrestin-1 K53C (C63A/C143A), mBBr-labeled (bovine, UniProt P08168 2-404, C63A | C143A | K53C, monobromobimane (mBBr) on the introduced cysteine 53); assay: as above; conditions: both partners purified
T5 construct: arrestin-1, bovine; source: Pichia pastoris, purified (nickel-agarose)

[9] = biological target: T6, arrestin-1 D183C (C63A/C143A), mBBr-labeled (bovine, UniProt P08168 2-404, C63A | C143A | D183C, monobromobimane (mBBr) on the introduced cysteine 183); assay: as above; conditions: both partners purified
T6 construct: arrestin-1, bovine; source: Pichia pastoris, purified (nickel-agarose)

[10] = biological target: T7, arrestin-1 R189C (C63A/C143A), mBBr-labeled (bovine, UniProt P08168 2-404, C63A | C143A | R189C, monobromobimane (mBBr) on the introduced cysteine 189); assay: as above; conditions: both partners purified
T7 construct: arrestin-1, bovine; source: Pichia pastoris, purified (nickel-agarose)

[11] = biological target: T8, arrestin-1 S210C (C63A/C143A), mBBr-labeled (bovine, UniProt P08168 2-404, C63A | C143A | S210C, monobromobimane (mBBr) on the introduced cysteine 210); assay: as above; conditions: both partners purified
T8 construct: arrestin-1, bovine; source: Pichia pastoris, purified (nickel-agarose)

[12] = biological target: B1; assay: as above; conditions: both partners purified
[13] = biological target: T9, arrestin-1 K267C (C63A/C143A), mBBr-labeled (bovine, UniProt P08168 2-404, C63A | C143A | K267C, monobromobimane (mBBr) on the introduced cysteine 267); assay: as above; conditions: both partners purified
T9 construct: arrestin-1, bovine; source: Pichia pastoris, purified (nickel-agarose)

[14] = biological target: T10, arrestin-1 V281C (C63A/C143A), mBBr-labeled (bovine, UniProt P08168 2-404, C63A | C143A | V281C, monobromobimane (mBBr) on the introduced cysteine 281); assay: as above; conditions: both partners purified
T10 construct: arrestin-1, bovine; source: Pichia pastoris, purified (nickel-agarose)

[15] = biological target: T11, arrestin-1 E302C (C63A/C143A), mBBr-labeled (bovine, UniProt P08168 2-404, C63A | C143A | E302C, monobromobimane (mBBr) on the introduced cysteine 302); assay: as above; conditions: both partners purified
T11 construct: arrestin-1, bovine; source: Pichia pastoris, purified (nickel-agarose)

[16] = biological target: T12, arrestin-1 D362C (C63A/C143A), mBBr-labeled (bovine, UniProt P08168 2-404, C63A | C143A | D362C, monobromobimane (mBBr) on the introduced cysteine 362); assay: as above; conditions: both partners purified
T12 construct: arrestin-1, bovine; source: Pichia pastoris, purified (nickel-agarose)

[17] = biological target: T1, arrestin-1 H10C (C63A/C143A), …; assay: as above; conditions: both partners purified

- reduction of the pulldown against WT arrestin-1 [1]: 25%
- reduction of the pulldown against WT arrestin-1 [2]: 25%
- reduction of the pulldown against WT arrestin-1 (arrestin-1 R29E (bovine)): 25%
Molecule: enolase-1 labeled with Alexa Fluor 546 (from UniProt Q9XSJ4 1-434) (enzyme)

Molecule: B1
- binding result [3]: binds

Molecule: B2
- quench protection at a 20-fold molar excess of enolase-1 [4]: 90%
- Pf (quench protection factor) [5]: 0.732
- Pf (quench protection factor) [6]: 0.564
- Pf (quench protection factor) [7]: 0.297
- Pf (quench protection factor) [8]: 0.314
- Pf (quench protection factor) [9]: 0.787
- Pf (quench protection factor) [10]: 0.467
- Pf (quench protection factor) [11]: 0.618
- Pf (quench protection factor) [12]: 1.08
- Pf (quench protection factor) [13]: 0.484
- Pf (quench protection factor) [14]: 0.269
- Pf (quench protection factor) [15]: 0.772
- Pf (quench protection factor) [16]: 1.2
- Pf (quench protection factor) [17]: 0.792
